Source: patent US20130039916A1 (Merck Sharp & Dohme, published 2013)
“And” between values parts separate entries of the source, which are not always exact repeats. Equal values may be shown once.

T1: non-tagged, non-linked native human IL-23p19/p40 coexpressed in SF9 cells (eBioscience CAT No. 34-8239) (human, UniProt P29460 23-328)
T1 sequence 1: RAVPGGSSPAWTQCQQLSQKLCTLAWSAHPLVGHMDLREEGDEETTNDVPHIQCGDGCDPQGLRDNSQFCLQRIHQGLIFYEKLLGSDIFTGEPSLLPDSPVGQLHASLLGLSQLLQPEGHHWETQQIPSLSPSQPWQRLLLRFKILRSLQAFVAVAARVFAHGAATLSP
T1 sequence 2: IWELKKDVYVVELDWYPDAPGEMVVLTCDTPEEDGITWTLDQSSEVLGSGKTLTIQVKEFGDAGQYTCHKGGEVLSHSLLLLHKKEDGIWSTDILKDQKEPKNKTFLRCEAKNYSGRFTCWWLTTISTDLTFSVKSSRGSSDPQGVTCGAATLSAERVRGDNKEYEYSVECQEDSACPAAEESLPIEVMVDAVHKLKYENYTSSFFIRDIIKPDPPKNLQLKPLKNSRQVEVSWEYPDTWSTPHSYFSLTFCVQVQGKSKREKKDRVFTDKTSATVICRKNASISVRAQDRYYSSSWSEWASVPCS

T2: "Non-linked" human IL-23 (human p40 coexpressed in 293T cells with human p19:FLAG-tag peptide) (human, UniProt P29460 23-328)
T2 sequence 1: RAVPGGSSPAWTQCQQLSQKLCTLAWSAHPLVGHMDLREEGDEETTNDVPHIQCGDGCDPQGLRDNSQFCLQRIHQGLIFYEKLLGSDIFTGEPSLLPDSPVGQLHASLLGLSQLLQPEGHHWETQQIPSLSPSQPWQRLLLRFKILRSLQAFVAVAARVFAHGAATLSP
T2 sequence 2: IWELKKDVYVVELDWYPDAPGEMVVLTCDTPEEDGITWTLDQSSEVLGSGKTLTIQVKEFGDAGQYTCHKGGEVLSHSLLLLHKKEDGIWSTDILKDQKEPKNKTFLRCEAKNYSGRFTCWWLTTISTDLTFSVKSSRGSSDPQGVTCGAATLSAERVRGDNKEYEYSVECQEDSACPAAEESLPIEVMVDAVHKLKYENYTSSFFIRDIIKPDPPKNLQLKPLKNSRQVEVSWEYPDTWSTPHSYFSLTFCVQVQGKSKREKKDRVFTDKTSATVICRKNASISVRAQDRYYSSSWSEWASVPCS

T3: human IL-23 (form not stated) (human, UniProt P29460 23-328)
T3 sequence 1: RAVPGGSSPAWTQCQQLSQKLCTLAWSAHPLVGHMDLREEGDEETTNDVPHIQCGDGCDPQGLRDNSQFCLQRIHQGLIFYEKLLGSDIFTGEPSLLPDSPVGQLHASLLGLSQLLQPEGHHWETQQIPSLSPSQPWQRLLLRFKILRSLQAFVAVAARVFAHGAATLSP
T3 sequence 2: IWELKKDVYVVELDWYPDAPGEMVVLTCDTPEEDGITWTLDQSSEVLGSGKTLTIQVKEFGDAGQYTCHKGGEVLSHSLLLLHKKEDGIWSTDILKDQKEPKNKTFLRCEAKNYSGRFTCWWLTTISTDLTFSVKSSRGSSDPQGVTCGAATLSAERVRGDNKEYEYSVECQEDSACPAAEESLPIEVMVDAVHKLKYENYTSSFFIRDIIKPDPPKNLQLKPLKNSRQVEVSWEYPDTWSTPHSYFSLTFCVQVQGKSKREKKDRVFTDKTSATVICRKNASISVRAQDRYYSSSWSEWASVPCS

T4: "N222Q" human IL-23 (elastikine sequence with Asn222 to Gln in the p40 subunit, expressed in SF9 cells) (human, UniProt P29460 23-328)
T4 chain 1: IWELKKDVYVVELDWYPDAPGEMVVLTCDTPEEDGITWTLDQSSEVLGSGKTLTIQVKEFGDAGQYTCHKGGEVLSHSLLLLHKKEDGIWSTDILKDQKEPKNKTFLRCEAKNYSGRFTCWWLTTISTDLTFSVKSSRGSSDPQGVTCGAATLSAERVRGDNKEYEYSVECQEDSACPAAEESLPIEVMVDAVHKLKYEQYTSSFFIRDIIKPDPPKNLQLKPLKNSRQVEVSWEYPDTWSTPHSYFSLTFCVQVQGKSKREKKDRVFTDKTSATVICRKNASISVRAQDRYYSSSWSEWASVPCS
T4 chain 2: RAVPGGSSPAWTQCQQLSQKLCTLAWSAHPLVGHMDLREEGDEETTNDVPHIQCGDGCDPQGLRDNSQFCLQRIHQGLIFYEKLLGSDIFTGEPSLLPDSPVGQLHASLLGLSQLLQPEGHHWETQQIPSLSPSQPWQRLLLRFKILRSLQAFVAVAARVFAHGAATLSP


Tests used:
[1] = molecular target: T1, non-tagged, non-linked native human …; experiment: cell-based or functional assay
[2] = molecular target: T5, "Elastikine" human IL-23 (single chain FLAG-tag:GLU-tag:human p40:elasti-linker:human p19, expressed in 293T … (human, UniProt P29460 23-328)); experiment: cell-based or functional assay
[3] = molecular target: T2, "Non-linked" human IL-23 (human p40 …); experiment: cell-based or functional assay
[4] = molecular target: T1, non-tagged, non-linked native human …; experiment: KinExA, solution equilibrium
Protocol: (§1) The equilibrium dissociation constant (Kd) for anti human IL-23 antibodies is determined using the KinExA 3000 instrument. Sapidyne Instruments Inc., Boise Id., USA KinExA uses the principle of the Kinetic Exclusion Assay method based on measuring the concentration of uncomplexed antibody in a mixture of antibody, antigen and antibody-antigen complex. The concentration of free antibody is measured by exposing the mixture to a solid-phase immobilized antigen for a very brief period of time. In practice, this is accomplished by flowing the solution phase antigen-antibody mixture past antigen-coated particles trapped in a flow cell. Data generated by the instrument are analyzed using custom software. Equilibrium constants are calculated using a mathematical theory based on the following assumptions:
(§2) 98 micron PMMA particles (Sapidyne, Cat No. 440198) are coated with biotinylated rhIL-23 according to Sapidyne “Protocol for coating PMMA particles with biotinylated ligands having short or nonexistent linker arms”. To make biotinylated rhIL-23, EZ-link TFP PEO-biotin (Pierce, Cat. No. 21219) is used according to manufacturer's recommendations (Pierce bulletin 0874). Experimental procedures are done according to the KinExA 3000 manual.
(§3) KinExA experiments are performed essentially as described at Example 3 of U.S. Patent Application Publication No. 2007/0048315.

[5] = molecular target: T5, "Elastikine" human IL-23 (single chain …); experiment: KinExA, solution equilibrium
Protocol: as §1, §2, §3

[6] = molecular target: T2, "Non-linked" human IL-23 (human p40 …); experiment: KinExA, solution equilibrium
Protocol: as §1, §2, §3

[7] = molecular target: T6, "Elastikine" human IL-23 (single chain FLAG-tag:GLU-tag:human p40:elasti-linker:human p19, expressed in 293T … (human, UniProt P29460 23-328)); experiment: cell-based or functional assay; remark: listed apart in the source
[8] = molecular target: T1, non-tagged, non-linked native human …; experiment: BIAcore SPR, antibody immobilised on CM5 chip, IL-23 in solution
Protocol: (§4) BIAcore determinations are performed essentially as described at Example 4 of U.S. Patent Application Publication No. 2007/0048315. Briefly, ligands (anti-IL-23 mAbs) are immobilized on a BIAcore CM5 sensor chip using standard amine-coupling procedure. IL-23 (various forms) is diluted in PBS to produce various concentrations. Kinetic constants for the various interactions are determined using BIAevaluation software 3.1. The Kd is determined using the calculated dissociation and association rate constants. In certain experiments, proteins are used at the following concentrations: anti-IL-23 mAb hu7G10 in PBS at 0.33 mg/mL; anti-IL-23 mAb hu6H12 in PBS at 0.2 mg/mL; bac-wt human IL-23 in PBS at 0.30 mg/mL; eBioscience human IL-23 in PBS at 0.10 mg/mL; N222Q human IL-23 in PBS at 0.33 mg/mL.

[9] = molecular target: T3, human IL-23 (form not stated); experiment: cell-based or functional assay
[10] = molecular target: T6, "Elastikine" human IL-23 (single chain …); experiment: KinExA, solution equilibrium
Protocol: as §1, §2, §3

[11] = molecular target: T4, "N222Q" human IL-23 (elastikine …); experiment: BIAcore SPR, antibody immobilised on CM5 chip, IL-23 in solution
Protocol: as §4

IC50 (pM), blocking of Ba/F3 cell proliferation [1] [pM] | IC50 (pM), blocking of Ba/F3 cell proliferation [2] | IC50 (pM), blocking of Ba/F3 cell proliferation [3] [pM] | Kd [4] [nM] | Kd [5] [nM] | Kd [6] [nM] | IC50 (pM), blocking of Ba/F3 cell proliferation [7] [pM] | Kd [8] | fold decrease of IC50 in the Ba/F3 proliferation bioassay against the heavy chain of SEQ ID NO: 129 without R98A [9] [fold] | Kd [10] | Kd [11] [nM] | Binder
11 | 9 pM and 5 pM | 67 | 0.62 | 0.019 | 0.034 | – | – | – | – | – | mouse anti-human IL-23p19 antibody 39G2 (antibody, V domains shown, also called m39G2) VH: QVQLQQPGAELVRPGASVKLSCKASGYSFTSSWMNWVKQRPGQGLEWIGMIHPSDSETRTNQKFKDKATLTVDKSSSTAYMQLSSPTSEDSAVYYCARGMITAPTVYWGQGTLVTVSA VL: DIVLTQSPASLAVSLGQRATISCRASKSVSTSAYSYFHWYQQKPGQPPKLLIYLASNLESGVPARFSGSGSGTDFTLNIHPVEEEDAATYYCQHSRELPWTFGGGTKLEITP
12 | 15 pM and 5 pM | 73 | > 0.7 | 0.053 | – | – | – | – | – | – | mouse anti-human IL-23p19 antibody 35F12 (antibody, V domains shown, also called m35F12) VH: QVQLQQPGAELMRPGASVRLSCKASGYSFTTSWMNWVKQRPGQGLEWIGMIHPSDSETRLNQNFKDKATLTVDRSSSTAYMQLNSPTSEDSAVYYCARGMITAPSVYWGQGTLVTVSA VL: DIVLTQSPASLAVSLGQRATISCRASKSVSTSAYSYFHWYQQKPGQPPKLLIYLASNLESGVPARFSGSGSGTDFTLNIHPVEEGDAATYYCQHSRELPWTFGGGTKLEITR
7800 | – | 10000 | – | – | – | 29 | 3.2 nM and 9 nM | – | – | – | humanized anti-human IL-23p19 antibody 7G10 (antibody, human IgG1, kappa, V domains shown, Full-length humanized antibody, human IgG1 / kappa; also called hu7G10; hum7G10) VH: QVQLVQSGAEVKKPGASVKVSCKASGYTFTSNVMHWVRQAPGQGLEWMGYINPYNDGTKYNEKFKGRVTMTTDTSTSTAYMELRSLRSDDTAVYYCARNWDVAYWGQGTLVTVSS VL: DIQMTQSPSSLSASVGDRVTITCRASQSISDYLHWYQQKPGKAPKLLIYYASQSISGVPSRFSGSGSGTDFTLTISSLQPEDFATYYCQNGHSFPFTFGQGTKVEIKR
– | – | – | – | – | – | – | – | > 1000 | – | – | humanized antibody 17G8 with R98A substitution in the heavy chain of SEQ ID NO: 129 (antibody, V domains shown) VH: QVQLVQSGAEVKKPGASVKVSCKASGYTFTSYGIKWVRQAPGQGLEWMGEIFPRSGQTIYNEKFKGRVTMTTDTSTSTAYMELRSLRSDDTAVYYCAANWDLDYWGQGTLVTVSS VL: DIQMTQSPSSLSASVGDRVTITCRASQSISDYLHWYQQKPGKAPKLLIYYASQSISGVPSRFSGSGSGTDFTLTISSLQPEDFATYYCQNGHSFPYTFGQGTKVEIKR
3200 | – | 4000 | – | – | – | 27 | 4.1 nM | – | 0.028 nM and 0.036 nM | 0.5 | humanized anti-human IL-23p19 antibody 6H12 (antibody, human IgG1, kappa, V domains shown, Full-length humanized antibody, human IgG1 / kappa; also called hu6H12; hum6H12) VH: QVQLVQSGAEVKKPGASVKVSCKASGYTFNRYLIHWVRQAPGQGLEWMGYINPNNAGTNYNEKFKGRVTMTTDTSTSTAYMELRSLRSDDTAVYYCARNWDQAYWGQGTLVTVSS VL: DIQMTQSPSSLSASVGDRVTITCRASQSISDYLHWYQQKPGKAPKLLIYYTSQSISGVPSRFSGSGSGTDFTLTISSLQPEDFATYYCQNGHSFPFTFGQGTKVEIKR
